The data set is described as follows: soluble on expression in E. coli; label from the status in PepcDB or PDB records.
In the case of “MNTLTTTSVVLPAPRPAINQGIDINNEMVLNHTAIYENCLAQVTQENTVENALMLLDPYGTAPLSAYAGVWSLEPAEIIVTVQDAAKTAMPVEHLYTLTAGANLLPVLGLVADTENRIVFSQADTPLAVYTLITQPLPPVDSAEVVLGFPIINVTQPATDANKMAPGFYFITHFDRYNYALDQNGLVRWYVTQDYPSYNFVRIDNGHFLTTSEAKNTYLDMYEFDMMGRLHTFYNLDNQFHHSIWPWDSNTIVAPSEYTSGRPDDLKTNEDGVSVVDLTTGLETAYYDMAKVLDTTRVSRPSGTAPGEDPTVKDWLHINQSYVNETNQLLIASGRHQSAVFGVDLQTQALRFILSTHEDWDDAYQPYLLTPVDSEGVALYDFSKQEDIDAADRDFWTWGQHNVVEIANNTPGIVEFMVFDNGNYRSRDDSKSLLPPDNYSRIVHFVVNMNEMTVMRPFEYGKELGARGYSSCVSAKAIQQNGNIVVHFADCTFDENGRAISCQPGESDIIDPQAGSEAMGLLILQEIAPTEKTVLFEATMTSGYYKNAETNGEGYRYDITSFRVYKMDLYALEHHHHHH”, the “soluble on expression in E. coli” value is on record as “soluble”.

On to “MNQSCPNKTSFKIAFIQARWHADIVDEARKSFVAELAAKTGGSVEVEIFDVPGAYEIPLHAKTLARTGRYAAIVGAAFVIDGGIYDHDFVATAVINGMMQVQLETEVPVLSVVLTPHHFHESKEHHDFFHAHFKVKGVEAAHAALQIVSERSRIAALV”, for which the “soluble on expression in E. coli” value was “soluble”.

Consider “MEYKPMPYPIIDSHCHLDFPKFNPDREEAIQRARKAGVVGMVNSGISLKGNRISLELAEKNEDIHAALGLSPDIGREGSDKDINAILAQIEANAGKAVAIGEAGLDFQDCKTDEERRRQTASFKKVIELAKNLEKPLVVHARMAEAEVLELARDVDTVIYHCYSGSVETMKEIVDAGYYISLATLVCFSEHHQTLAAEVPPENLLLETDSPFLSPRRGRNEPAFIVDSIPVVAEYKEMEPAEIAKFATENARRVFKILEHHHHHH”, for which the “soluble on expression in E. coli” value was “not soluble”.

On to “MGSDKIHHHHHHMSVQISVVAATLNEIDNIEQFIDGVEGVLKGMEFEIIVVDDNSSDGTKEYLARRMNEDTHVVVIENPYRFGMLRSLKLGIEKAGGEIVLVMDADMQHPPSAIPKLISRIVDGCDIVVGSRYVDGGSAGDRDAFRAALSRGAEFLAHALVPSSRMTSDPMSGFFAFRRDLRHDFAYRQTFATADYGAKILLIILAENRHAKVCDVGYVFQSRMRGKSKIVSGTSFLKRYLAELFEVMKLERRYRHMQ”, for which the “soluble on expression in E. coli” value was “not soluble”.

Take “MFKRTKLILIATLLLSGCSTTNNESNNETKSVPEEMEASKYVGQGFQPPAEKDAIEFAKKHRKEFEKVGEQFFKDNFGLKVKATNVVGKDDGIEVYVHCDDHGIVFNASLPLYKDAIHQKGSMRSNDNGDDMSMMVGTVLSGFEYRAQKEKYDNLYKFFKENEKKYQYTGFTKEAINKTQNVGYKNEYFYITYSSRSLKEYRKYYEPLIQKNDKEFKEGMERARKEVNYAADTDAVATLFSTKKNFTNDNTEDDVIELSDKLYNLKNKPDKSTITIQIGKPTINTKKAFYDDNRPIEYGVHSKGELEHHHHHH”: the “soluble on expression in E. coli” value is listed as “not soluble”.

For the sequence “MAHHHHHHMYGDKGPPKGYSVPRFDTNASKRCQTCSSTVHWTFECPLKNSATLSAKKSAATTVKLSPSQMLRYGIKQKSANFVSEPTEREVFDAELRELRSVLTAEVRQELKAKKSAAHKSGNDCKKHEAPLPSAAPKKEPPSDSVTMKTERTEEEE”, the “soluble on expression in E. coli” value was “soluble”.

Turning to “MPISETWLLPDGVADVLPEQAQVVETLRRQALDFLASRGYQLVYTPFIEYIESLSLLSESNHDLDLVTFKVIDQLSGRLLGVRADMTPQVARIDAHVRSIEGVARYCYAGTVLHTKPQNFNSSRAPLQLGAELYGHQSLEADIEMVDVMLGLIQQAHNLEGLHLDLGHVGLFRSLVKRAGLSKQVEQDLSDLYQRKALPELEEVTKTLAFGSDFYALGRYASDLNALEQHLSQDVLNDASFKTSLDDLKTTLSQIQTRWPNLRIGIDVVELRSYHYHTGLMYAVYAPNRAAPLAQGGRYDGIGEHFGRARPATGFSCDLYALCVGQFKEIETIVAPAGQDQQLLGAIAQARQNGLRVIQLLGNDDLSSVPYATHKMELAQDQWQINKI”, the “soluble on expression in E. coli” value is reported as “not soluble”.

“MIYRFTIISDEVDDFVREIQIDPEATFFDLHEAILKAANYTNDQMTSFFICDDDWEKEKEITLEEMDNNPEMDSWIMKETRLNELIEDEKQKLLYVFDYMTERCFFIELSEIITGKEIKGAKCTKKSGEAPKQTVDFEEMAAGGGSLDLDENFYGDQDFDMEDFDAEGFDVNDGAAGGGSSYDEDKFLEHHHHHH”: the “soluble on expression in E. coli” value is given as “soluble”.

With “MSLQARVAAPVVAKEREELVDRIEGETSAADELEKSVDELRDDVDARRREALEKSGDGDRSDLVGILSGAVEVHGPGVKLVVNDAKDVATGADGQPRGTSGFSDTGRVRDRDMQRVVNGLWESGAEAISVNGQRLTALSAIRAAGDAILVDNRPLVPPYTVLAVGDGERLSRGFQDSADGLYLHALEESYGIRTAISVADDLKLPAAPSVIVRTAQPITEKGTSEGHHHHHH”, the “soluble on expression in E. coli” value was “soluble”.

As for “FECGVNSLDEWLKRRALANQHSGASRTFVVADHDSRVYGYYAMAAGAVSHQAATSGVRRNMPDPVPVMVLARLAVDQRAQGIKLGAALLQDAVNRVVNVSHNVGVRALLVHALDDRAKQFYAHYGFKESPQHPM”, the “soluble on expression in E. coli” value is listed as “not soluble”.

For the sequence “MAHHHHHHMRNLSDQFPVEDSPMNARRQMANGDDHSQRDSPMNHDVAHTYEGNTLDGHLTKAESASMTKTPTAAANGACANSAPSEYVVAKERLEAARAAHKQRLREIKDDKSLKIKSMPSLEELRDERVRLSEQVLHHKDEQDSLALDIEGLEGAAEVYQLAARVQRLEHFANRAYEYAEETLPRDIERTLEEDRQLSNRELCAYIQELQSKRANTLKKVVASQEGMVKRNLRKGATATTAALGEDADPMEAKAVAHTQENKDECVVLHQKIRRFCAMRTKLQSDILKEKSASKKMEERMCAAIRTAELANARDARMCGELNNRNAAATTNSQLLIDQLNVGHYGLGNAPSTKQLLEDRKAREALLETTETDQQQYGRFVSSGSLGSRQSYANSQSSHQRAIKPPLVASKPTAAQRARDDASRSSREEFAQMLRRNSDGNSYQASRSQSLSKPPLVASKPTASQQSRETALRGEREEVSVSRTVARSNSLFSDVRPPSLAAKSTASQRSRDRQ”, the “soluble on expression in E. coli” value is listed as “not soluble”.

On to “GARNSVLRGKKADELERIRLRPGGKKKYRLKHIVWAANKLDRFGLAESLLESKEGCQKILTVLDPMVPTGSENLKSLFNTVCVIWCIHAEEKVKDTEGAKQIVRRHLVAETGTAEKMPSTSRPTAPSSEKGGNY”, for which the “soluble on expression in E. coli” value is recorded as “soluble”.

Consider “MAHHHHHHMMNMFYRRDFPVSFRYVNDHSKFIGAGSGRGNRKRGMAPNNYTEYLRIMANEANGTGQDTSRVLFIDSEVNYRFTPVQTIVLDAYEPLTRRQQRRLVQQQYSNPFGDVSSRNARRYGAAAARARKMTVRHRAVVSAQHLQDAVDMQQKYTDFLIAEQEGVQLPPEMRNGVQDGHGGDLCHFSKRHPQRSAPSSSSPPHPQQGGSTRGRVSGPLSTPGPSSLADTESDKTPPDGNKDIKEEQQQLSMSCALAVNLEDYSLVALAEMIAEMSASETSVADYIKTEPLIEKVEVPFHGKANYLAPENCDNIDLLNWDEIQVLEKAHGTGVPEMVEETEDHKDFFR”, for which the “soluble on expression in E. coli” value is recorded as “not soluble”.

For “MAHHHHHHMQRSMMRELCYVGSVALSPMRPKKNAFKLRERGETTRLFCANSEMSNFYGINESGFSNTRPPPYLLRFDKCNDVIAYTNEIDNESLKQIKNLAKLHIIKGHITILPDVHLGKGIIIGSVFLTKHFIIPNGVGVDIGCGVLCVKINKLKKKNLHEGVINNIYKKIKRNIPLSFDYHEKEVFDAKNVLDELVAKYASSNMAHIMNPKHLKQMGTLGGGNHFIEIAYDASGDVKAEPINGNLSGEAHQNDNTQKYACQQNHYPESDIYILIHSGSRNIGKSTAEFYDDLASHESKVKRNDLAYLDLRKKHGQNYLRDMQLCQEYAKYNRIYMMKIIEQIIKEELNCTLDWQNAINIHHNFCNHELVNYFHNGEVKKEYMYVTRKGATSSMKNQLGIIPGNMKVGSYIVRGKGNKLSYNSCSHGCGRVLSRTHAKKIINQADFVNIMKGVRCDTSAKIRDEATQAYKNLNKVLRNQDSLIHVVRRLLPLINVKGG”, the “soluble on expression in E. coli” value was “not soluble”.

With “GSSSSLPLYNQQVGDCCIIRVSLDVDNGNMYKSILVTSQDKAPTVIRKAMDKHNLDEDEPEDYELLQIISEDHKLKIPENANVFYAMNSAANYDFILKKR”, the “soluble on expression in E. coli” value is given as “soluble”.

On to “MDTLDELLPREKMLRSGIASLSDVELLALFLRTGTPGKDVMTLAKEILQHFGSLYGLLSADFAQFRGVNGIGLAKFAQLKGIAELARRYYSVRMNEESALLSPEMTREFLQSQLTGEEREIFLVIFLDAQHRVLQHSRLFSGTLNHVEVHPREIVREAIKLNASAVILAHNHPSGCAEPSKADKLITERVIKCCQFMDIRVLDHLIIGRGEYVSFAERGWI”, for which the “soluble on expression in E. coli” value is given as “not soluble”.

Regarding “MKLKITLYSVCLLMLLAACQQDGPTPEPSVGSRTVLVYMIAQNSLAPLASADIEEMKEGMRQVDATSGNLLVYIDDYSAPRLIRLGKDKKGKVVEETIENYPEQNSADANVMKKVISTAFNQYKAEKYGMVFWSHGEGWIPSPAKTRWFGQDGNNYMDIADLHAALQVAPDLDFLFFDACFMEAVEVAYALRDCGSYLISSPTEIPGPGAPYQTVVPAMFSAENAALKIASCYYDYYQSRYNDGIGMSNEDWTGGVSVGVAKMSELENLAVATSKVLPRYITGKQNFDLSGVMCYDRRTDKQYYYDLDRFIYQITAGNGDYDSWREAFDKVMVYWKSTPRNYSAYAGMFTMNQDAKGLSTYIPRMSAPSLNTSYQQTEWYKVSGWADTGWYKNLEHHHHHH”, the “soluble on expression in E. coli” value is on record as “not soluble”.

As to “MGSDKIHHHHHHMGLLAGVEISDVPLKKIVTVCLAVLVAGCAGPQTQELLGSAIVAAPVTEIAGNHSIFIATTRKKSDDPNKVFDGERSATLNYARVNVTVPGLHQTGQIERRSRGKSDDPAKYFMASEVVGYDTQPKFSSALNADIAARGGRVMVFVHGYNTGFDDAVYRLTQIVHDSGYPGTPVLFSWASGAKTTDYVYDKESASAARDQLEVTLRMLQQSGARRIDIVAHSMGTWVTMETLRQMAISGDRDLGGKLGDVVLASPDIDVDVFKSQMRRYGKPDKPFILLLSDDDRALRLSGLIAGSRPRVGDYKDAADLASYGVTVVDLSEVKGSDSFNHTKFADNPVLVKMIGQRLREDDGFASDRDVTDRISLLGQ”, the “soluble on expression in E. coli” value is “not soluble”.

“MKVWIKASALLTLAGLTACSASPTGRNQILMFSDQEMSSLGAKSFDQMKKDIPISKDKKTNAYVQCVAKQITNAIPPQAGFKDWEVVVFDSDQVNAFALPGGKIGVYTGLLKVAKNQDQLATVIGHEVAHVLAEHSNERLSQSQLANAGLSLANVAIGASEYKQYQQLTMAALGVGVQYGVILPYGRTQESEADIVGLEYMAKAGFNPNQSVDLWKNMSAASGGAQPPEFFSTHPSHSTRIKDLQATINKLPKYNVKAPKCGLEHHHHHH”: the “soluble on expression in E. coli” value is “not soluble”.

For the sequence “MLRVLSRQAFSMVRAANFSASASSAGGGGLSDEVRKRIDGIVKKDDVVVFMKGTQQEPACGFSRNVKLVLDFHNVKFQDYNVLTDQELREGVKIFSEWPTIPQVYVKGEFVGGCDILISMHKDGEISDFLDEKGISNKYGKQ”, the “soluble on expression in E. coli” value is “not soluble”.

These data come from the DeepSol protein solubility set.
